Here are results for 1 substance from US20040106557A1.

This assay deals with Prostate specific antigen (PSA), purified from human seminal fluid (human) (UniProt P07288). Nature of the assay: gel filtration peak of ~30 kD after thrombin cleavage, GST-peptide IFMA on PSA captured by MAb 5E4. (Size exclusion chromatography separates by hydrodynamic size, large species first.)

“~30 kD component of thrombin-cleaved GST-C-4 (from UniProt P08515 1-218)” showed a Binding activity (% of total), remaining after thrombin-treatment of 5.2%.
